The record followed here is patent US20260103529A1, “Amino Acid Sequences Directed Against the Melanocortin 4 Receptor and Polypeptides Comprising the Same for the Treatment of MC4R-Related Diseases and Disorders” (Confo Therapeutics N.V., priority 2022, published 2026).

Where two headings read alike, the source gives them in different places.

Assay [1] addresses T1, human wild type MC3R (Homo sapiens, UniProt P41968).
T1 construct: expressed in transfected cells; host or cells: HEK293 / HEK 293T, pcDNA3.1(+)
Kind of assay: cAMP GloSensor assay, MC3R. It is filed as cell-based.

Assay [2] addresses T2, human MC3R (Homo sapiens, UniProt P41968).
T2 construct: Flag; expressed in transfected cells; host or cells: HEK293T
In words: Flow cytometry binding to Flag-tagged receptor in HEK293T cells, MC3R. To be noted: 1 μM. The procedure: (§1) To confirm MC4R activation, dose-dependent nanobody-induced cAMP signaling was assessed (Lance Ultra HTRF). […] Binding of pN162 to the human melanocortin receptor subtypes MC1R, MC2R, MC3R, MC4R or MC5R transiently expressed as Flag-tagged receptors in HEK293T cells was assessed by flow cytometry.
In general terms: Flow cytometry measures light scatter and fluorescence of single cells or particles in a stream.

Assay [3] deals with T3, WT human MC4R (Homo sapiens, UniProt P32245).
T3 construct: Flag (N); expressed in transfected cells; host or cells: HEK293T
T3 sequence (P32245 whole entry): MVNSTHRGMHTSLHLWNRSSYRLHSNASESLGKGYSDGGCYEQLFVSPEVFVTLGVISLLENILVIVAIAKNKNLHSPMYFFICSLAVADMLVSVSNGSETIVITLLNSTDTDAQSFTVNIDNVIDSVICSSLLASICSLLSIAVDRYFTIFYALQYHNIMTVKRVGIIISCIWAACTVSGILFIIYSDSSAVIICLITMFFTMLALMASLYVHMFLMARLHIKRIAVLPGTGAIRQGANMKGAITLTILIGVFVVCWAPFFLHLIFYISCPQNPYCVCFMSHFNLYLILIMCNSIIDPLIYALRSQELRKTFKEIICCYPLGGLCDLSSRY
In words: β-arrestin recruitment assay. It is filed as cell-based. The settings on record: for EC50: WT human MC4R-expressing HEK293T cells.

For assay [4], the system named is MC4R. Kind of assay: Radioligand displacement, CHO stable cell line. It is filed as binding. To be noted: mean ± spread, n = 2.
The target of assay [5] is T4, human wild type MC4R (Homo sapiens, UniProt P32245). In words: cAMP GloSensor assay, MC4R. It is filed as cell-based. Set-up: Flag; expressed in transfected cells; host or cells: HEK293T. How it is done: as §1
T4 sequence (P32245 whole entry): as above
HEK 293T cells were routinely maintained at 37° C., 5% CO2, under humidified atmosphere in Dulbecco's modified Eagle's medium (DMEM, Gibco, cat. no. 41966-029) supplemented with 10% heat-inactivated fetal bovine serum. In preparation of the experiments, cells were plated on poly-L-lysine coated white 96-well plates (Costar: 3917) at the density of 3,00E+04 cells/well. At the moment of seeding, cells were transfected with 25 ng of human MC4R in pcDNA3.1 (+) and 50 ng of p22F GLoSensor plasmid (Promega Corporation), empty pcDNA3.1 (+) vector was added to obtain 100 ng of total DNA, using XtremeGene HP (Roche). To evaluate cross-reactivity of different VHHs for other melanocortin receptors, cells were additionally transfected with 50 ng of DNA encoding one of the three melanocortin receptors MC1R/MC3R/MC5R in pcDNA3.1 (+) and 50 ng of p22F GLoSensor plasmid (Promega Corporation), using XtremeGene HP (Roche). After 24 h post transfection, growing medium was gently removed from the cells and replaced with 90 μl/well of Assay medium (OptiMEM media containing 10% FBS HI with 2% GloSensor reagent (Promega)) in which cells were incubated for 2 h at room temperature in the dark. Next, background luminescence level was recorded using the En Vision 2104 Multilabel Plate Reader (Perkin Elmer). Samples (purified VHH produced in E. coli and/or mammalian cells with or without FC fusion) or benchmark compounds were prepared at 10× working concentration in OptiMEM containing 10% heat-inactivated Fetal Bovine Serum (FBS). After addition of 10 μl of samples luminescence was recorded in a kinetic mode using the En Vision 2104 Multilabel Plate Reader (Perkin Elmer). Data were analyzed using GraphPad Prism 8 by applying nonlinear regression (curve fit).

The target in assay [6] is T4, human wild type MC4R. In words: cAMP signaling assay (Lance Ultra HTRF). The settings on record: purified nanobodies, human MC4R-overexpressing HEK293 cells, read-out: potencies, MC4R-mediated dose-dependent cAMP accumulation. Set-up: double Twin Strep tag; expressed in transfected cells; host or cells: HEK293. It is filed as cell-based. The procedure:
as §1
On the technique in general: Time-resolved FRET reads energy transfer from a long-lived donor to a nearby acceptor.

[7] abbreviates: GloSensor head-to-head receptor subtype comparison.

T1 sequence (P41968 whole entry): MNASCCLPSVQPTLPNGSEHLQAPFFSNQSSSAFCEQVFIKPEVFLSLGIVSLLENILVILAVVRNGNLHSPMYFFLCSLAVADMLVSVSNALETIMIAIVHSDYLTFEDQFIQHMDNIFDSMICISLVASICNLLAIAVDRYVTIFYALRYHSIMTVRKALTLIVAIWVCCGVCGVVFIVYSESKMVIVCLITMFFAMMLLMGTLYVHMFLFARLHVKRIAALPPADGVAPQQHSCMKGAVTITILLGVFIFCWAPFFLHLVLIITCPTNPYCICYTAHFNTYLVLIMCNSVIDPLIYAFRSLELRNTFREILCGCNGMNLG
T2 sequence (P41968 whole entry): as above

B1: pN162: agonistic anti-MC4R VHH, SEQ ID NO: 184; parental clone for potency maturation (protein)
VHH: QVQLVESGGGLVQPGGSLRLSCAASGSAFSLNVMGWYRQTPGNQRALVAEITKDGSTNYADSAKGRFTISRDNAKNTVHLQMDSLKPEDTAVYYCKARTGRIVRPLDYWGQGTQVTVSS
modifications: pN0162
Regarding B1, in assay [1] (setting [7]), the “detectable cAMP signaling, MC3R” value is “only induced detectable signaling on MC4R”. Moreover, the “cAMP potency (EC50) MC3R” value in assay [1] (GloSensor, average EC50, human MC3R) is listed as “No effect”. Also, the “binding to MC3R by flow cytometry” value in assay [2] is “No binding could be detected”. The β-arrestin2 recruitment entry in assay [3] (Flag-tagged WT human MC4R HEK293T cells) is “dose-dependently recruits”. Moreover, the EC50 is 16 ± 2.1 nM in assay [3] (No Ca^2+, read-out: β-arrestin No Ca^2+ (EC50)); 23 ± 7.1 nM in assay [3] (read-out: β-arrestin 1 mM Ca^2+ (EC50), 1 mM Ca^2+); 8.4 ± 3.29 nM in assay [5] (Promega GloSensor, HEK293 transiently transfected, real-time, read-out: cAMP assay (GloSensor)); 13.2 ± 5.6 nM in assay [5] (human wild type MC4R in HEK293T cells, read-out: average EC50, real-time cAMP monitoring (GloSensor), MC4R); 0.7 nM in assay [6]. The “dependence of β-arrestin recruitment on Ca2+ ions” value in assay [3] (absence vs presence of 1 mM Ca2+) is “independent of Ca^2+ ions”. Besides, the Radioligand displacement in assay [4] amounted to 6.48 ± 1.96 nM. For the same molecule, the “reduced potency in cAMP signaling via human MC4R compared to setmelanotide” value in assay [5] (GloSensor) stood at 6.7 fold. Moreover, in assay [5] (setting [7]), the “detectable cAMP signaling, MC4R” value was “only induced detectable signaling on MC4R”. The “potency ranking among agonistic nanobodies” value in assay [5] (GloSensor, Flag-tagged human wild type MC4R HEK293T cells) is on record as “most potent full agonist nanobody”.
